Source: patent US20180312587A1
pEC50: −log10 of the molar value. Blank lines part the entries; values can stand above or below the substance they belong to.

Assays:
hSIRPαV1(P74A) (human) [1] = target: hSIRPαV1(P74A) (human) (UniProt P78324); assay: CELISA, CHO-K1 transfectants
[2] = target: human SIRPα variant 1 (human) (UniProt P78324); assay: CELISA, CHO-K1 transfectants
[3] = target: hSIRPβ1 transcript variant 3/hSIRPβL (human) (UniProt Q5TFQ8); assay: CELISA, CHO-K1 transfectants; extrapolated
[4] = target: human SIRPα variant 1 (human) (UniProt P78324); assay: CELISA, CHO-K1 transfectants; extrapolated
human SIRPγ (human) [5] = target: human SIRPγ (human) (UniProt Q9P1W8); assay: CELISA, CHO-K1 transfectants
[6] = target: human SIRPα variant 2 (human) (UniProt P78324); assay: CELISA, CHO-K1 transfectants
[7] = target: human SIRPα variant 2 (human) (UniProt P78324); assay: CELISA, CHO-K1 transfectants; extrapolated
human SIRPβ1 (human) [8] = target: human SIRPβ1 (human) (UniProt O00241); assay: CELISA, CHO-K1 transfectants
human SIRPγ (human) [9] = target: human SIRPγ (human) (UniProt Q9P1W8); assay: CELISA, CHO-K1 transfectants; extrapolated
human SIRPβ1 (human) [10] = target: human SIRPβ1 (human) (UniProt O00241); assay: CELISA, CHO-K1 transfectants; extrapolated
human SIRPβ1 (human) [11] = target: human SIRPβ1 (human) (UniProt O00241); assay: CELISA, CHO-K1 transfectants, domain exchange study
[12] = target: human SIRPα variant 1 (human) (UniProt P78324); assay: as above
hSIRP-VγC1βC2β (human) = hSIRP-VγC1βC2β (human) (UniProt O00241); assay: as above
[13] = target: human SIRPα variant 2 (human) (UniProt P78324); assay: as above
hSIRP-VβC1βC2γ (human) = hSIRP-VβC1βC2γ (human) (UniProt O00241); assay: as above
hSIRP-VβC1γC2β (human) = hSIRP-VβC1γC2β (human) (UniProt O00241); assay: as above
human SIRPβ1 (human) [14] = target: human SIRPβ1 (human) (UniProt O00241); assay: CELISA, CHO-K1 transfectants, point mutant study
hSIRPαV1(P74A) (human) [15] = target: hSIRPαV1(P74A) (human) (UniProt P78324); assay: CELISA, CHO-K1 transfectants, point mutant study
[16] = target: human SIRPα variant 1 (human) (UniProt P78324); assay: CELISA, CHO-K1 transfectants, point mutant study
hSIRPαV1(P74A) (human) [17] = target: hSIRPαV1(P74A) (human) (UniProt P78324); assay: CELISA, CHO-K1 transfectants, point mutant study; remark: listed apart in the source
[18] = target: human SIRPα variant 1 (human) (UniProt P78324); assay: CELISA, CHO-K1 transfectants, point mutant study; remark: listed apart in the source
human SIRPγ (human) [19] = target: human SIRPγ (human) (UniProt Q9P1W8); assay: CELISA, CHO-K1 transfectants; n = 1
human SIRPβ1 (human) [20] = target: human SIRPβ1 (human) (UniProt O00241); assay: CELISA, CHO-K1 transfectants; n = 1
[21] = target: human SIRPα variant 1 (human) (UniProt P78324); assay: CELISA, CHO-K1 transfectants; n = 1
[22] = target: human SIRPα variant 2 (human) (UniProt P78324); assay: CELISA, CHO-K1 transfectants; n = 1
[23] = target: hSIRPαV8 (NA18570_V8) (human) (UniProt P78324); assay: CELISA, CHO-K1 transfectants; average of two experiments
[24] = target: hSIRPαV3 (NA07056_V3) (human) (UniProt P78324); assay: as above
[25] = target: hSIRPαV6 (NA18507_V6) (human) (UniProt P78324); assay: as above
[26] = target: hSIRPαV5 (NA18502_V5) (human) (UniProt P78324); assay: as above
[27] = target: human SIRPα variant 1 (human) (UniProt P78324); assay: as above
[28] = target: human SIRPα variant 2 (human) (UniProt P78324); assay: as above
[29] = target: hSIRPαV9 (NA18943_V9) (human) (UniProt P78324); assay: as above
[30] = target: hSIRPαV4 (NA11832_V4) (human) (UniProt P78324); assay: as above
[31] = target: hSIRPβ1 transcript variant 3/hSIRPβL (human) (UniProt Q5TFQ8); assay: CELISA, CHO-K1 transfectants
human SIRPβ1 (human) [32] = target: human SIRPβ1 (human) (UniProt O00241); assay: CELISA, CHO-K1 transfectants; remark: listed apart in the source
[33] = target: human SIRPα variant 1 (human) (UniProt P78324); assay: CELISA, CHO-K1 transfectants; remark: listed apart in the source
hSIRPα-VαC1αC2β (human) = hSIRPα-VαC1αC2β (human) (UniProt P78324); assay: CELISA, CHO-K1 transfectants, domain exchange study
hSIRPα-VβC1αC2α (human) = hSIRPα-VβC1αC2α (human) (UniProt P78324); assay: as above
human SIRPβ1 (human) [34] = target: human SIRPβ1 (human) (UniProt O00241); assay: as above; remark: listed apart in the source
[35] = target: human SIRPα variant 1 (human) (UniProt P78324); assay: as above; remark: listed apart in the source
[36] = target: human SIRPα variant 2 (human) (UniProt P78324); assay: as above; remark: listed apart in the source
hSIRPα-VαC1βC2α (human) = hSIRPα-VαC1βC2α (human) (UniProt P78324); assay: as above
Sequence of hSIRPα-VαC1βC2α (human) (P78324 other isoform, or with tags, fused parts or gaps limits assumed): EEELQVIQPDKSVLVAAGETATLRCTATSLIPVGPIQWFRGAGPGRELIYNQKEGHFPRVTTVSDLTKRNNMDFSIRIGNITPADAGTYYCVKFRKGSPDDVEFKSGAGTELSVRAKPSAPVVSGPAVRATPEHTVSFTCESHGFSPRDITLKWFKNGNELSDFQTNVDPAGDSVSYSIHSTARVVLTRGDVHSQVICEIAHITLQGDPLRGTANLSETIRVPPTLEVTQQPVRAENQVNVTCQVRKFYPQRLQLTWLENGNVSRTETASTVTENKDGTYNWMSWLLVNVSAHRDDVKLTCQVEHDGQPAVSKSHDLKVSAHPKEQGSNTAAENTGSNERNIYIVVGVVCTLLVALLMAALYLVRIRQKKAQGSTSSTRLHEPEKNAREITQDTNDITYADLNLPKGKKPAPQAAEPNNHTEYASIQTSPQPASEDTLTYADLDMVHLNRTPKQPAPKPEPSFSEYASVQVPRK

Sequence of human SIRPα variant 2 (human) (P78324 other isoform, or with tags, fused parts or gaps mutant limits assumed): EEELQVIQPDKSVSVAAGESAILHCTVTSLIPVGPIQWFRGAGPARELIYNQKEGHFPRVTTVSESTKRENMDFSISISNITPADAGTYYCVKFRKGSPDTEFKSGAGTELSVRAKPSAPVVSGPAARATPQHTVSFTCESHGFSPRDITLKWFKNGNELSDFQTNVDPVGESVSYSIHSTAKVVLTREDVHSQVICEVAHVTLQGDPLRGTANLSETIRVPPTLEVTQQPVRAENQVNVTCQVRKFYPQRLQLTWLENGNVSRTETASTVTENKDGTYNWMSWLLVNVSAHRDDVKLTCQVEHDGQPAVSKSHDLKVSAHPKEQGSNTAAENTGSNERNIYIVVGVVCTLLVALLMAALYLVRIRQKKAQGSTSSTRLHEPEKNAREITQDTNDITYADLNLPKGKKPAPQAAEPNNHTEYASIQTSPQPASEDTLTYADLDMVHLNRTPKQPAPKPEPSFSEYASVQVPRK
Sequence of human SIRPα variant 1 (human) (P78324 31-504 limits assumed, stated change not applied): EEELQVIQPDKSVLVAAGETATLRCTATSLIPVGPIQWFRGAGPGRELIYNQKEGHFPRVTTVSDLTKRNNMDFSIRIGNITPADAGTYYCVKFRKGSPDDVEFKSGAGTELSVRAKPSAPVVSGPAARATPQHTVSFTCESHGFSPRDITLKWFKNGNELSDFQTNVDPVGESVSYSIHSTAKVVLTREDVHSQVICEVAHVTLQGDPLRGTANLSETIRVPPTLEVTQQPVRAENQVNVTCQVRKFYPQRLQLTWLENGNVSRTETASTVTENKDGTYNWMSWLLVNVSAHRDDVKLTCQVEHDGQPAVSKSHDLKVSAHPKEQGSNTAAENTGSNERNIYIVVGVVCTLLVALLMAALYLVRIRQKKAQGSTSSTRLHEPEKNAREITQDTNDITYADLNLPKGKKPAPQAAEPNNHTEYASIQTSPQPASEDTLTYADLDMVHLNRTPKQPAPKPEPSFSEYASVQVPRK
Sequence of hSIRPαV1(P74A) (human) (P78324 31-504 P74A limits assumed): as the sequence (P78324 31-504 limits assumed, stated change not applied) above, with P44A counted along it
Sequence of human SIRPγ (human) (Q9P1W8 29-387 limits assumed): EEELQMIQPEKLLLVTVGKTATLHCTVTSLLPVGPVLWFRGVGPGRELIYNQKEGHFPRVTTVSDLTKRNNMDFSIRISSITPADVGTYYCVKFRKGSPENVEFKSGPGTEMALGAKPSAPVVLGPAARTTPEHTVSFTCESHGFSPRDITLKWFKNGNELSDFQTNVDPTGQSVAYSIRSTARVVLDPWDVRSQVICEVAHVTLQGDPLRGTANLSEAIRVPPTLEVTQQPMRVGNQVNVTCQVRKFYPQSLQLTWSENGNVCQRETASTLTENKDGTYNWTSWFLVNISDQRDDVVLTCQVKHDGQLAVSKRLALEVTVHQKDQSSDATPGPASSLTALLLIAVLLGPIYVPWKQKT
Sequence of human SIRPβ1 (human) (O00241 30-398 limits assumed): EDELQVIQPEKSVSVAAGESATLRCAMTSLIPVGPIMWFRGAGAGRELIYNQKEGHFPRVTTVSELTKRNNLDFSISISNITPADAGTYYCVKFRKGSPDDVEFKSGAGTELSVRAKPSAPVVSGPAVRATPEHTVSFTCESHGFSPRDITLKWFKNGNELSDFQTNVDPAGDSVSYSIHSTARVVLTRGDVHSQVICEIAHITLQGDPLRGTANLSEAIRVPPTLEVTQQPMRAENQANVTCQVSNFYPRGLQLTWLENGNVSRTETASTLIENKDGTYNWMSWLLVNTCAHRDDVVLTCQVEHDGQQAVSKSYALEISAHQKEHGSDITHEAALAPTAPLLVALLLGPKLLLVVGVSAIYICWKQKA
Sequence of hSIRPβ1 transcript variant 3/hSIRPβL (human) (Q5TFQ8 30-398 limits assumed, change not shown): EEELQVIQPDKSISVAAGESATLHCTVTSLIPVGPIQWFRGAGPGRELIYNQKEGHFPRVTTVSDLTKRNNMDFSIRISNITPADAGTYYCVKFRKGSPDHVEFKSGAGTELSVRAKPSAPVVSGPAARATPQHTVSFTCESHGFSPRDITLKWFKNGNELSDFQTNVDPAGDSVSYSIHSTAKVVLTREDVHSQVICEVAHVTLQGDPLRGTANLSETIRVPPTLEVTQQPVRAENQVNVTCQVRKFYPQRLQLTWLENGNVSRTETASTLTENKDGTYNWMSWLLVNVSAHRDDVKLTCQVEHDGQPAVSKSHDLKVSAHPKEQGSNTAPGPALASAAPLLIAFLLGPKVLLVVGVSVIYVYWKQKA
Sequence of hSIRPαV3 (NA07056_V3) (human) (P78324 other isoform, or with tags, fused parts or gaps limits assumed): as the sequence (P78324 other isoform, or with tags, fused parts or gaps mutant limits assumed) above, with H24L counted along it
Sequence of hSIRPαV9 (NA18943_V9) (human) (P78324 31-504 G109S limits assumed): as the sequence (P78324 31-504 limits assumed, stated change not applied) above, with G79S counted along it
Sequence of hSIRPαV5 (NA18502_V5) (human) (P78324 other isoform, or with tags, fused parts or gaps limits assumed): as the sequence (P78324 31-504 limits assumed, stated change not applied) above, with S12F counted along it
Sequence of hSIRP-VβC1γC2β (human) (O00241 other isoform, or with tags, fused parts or gaps limits assumed): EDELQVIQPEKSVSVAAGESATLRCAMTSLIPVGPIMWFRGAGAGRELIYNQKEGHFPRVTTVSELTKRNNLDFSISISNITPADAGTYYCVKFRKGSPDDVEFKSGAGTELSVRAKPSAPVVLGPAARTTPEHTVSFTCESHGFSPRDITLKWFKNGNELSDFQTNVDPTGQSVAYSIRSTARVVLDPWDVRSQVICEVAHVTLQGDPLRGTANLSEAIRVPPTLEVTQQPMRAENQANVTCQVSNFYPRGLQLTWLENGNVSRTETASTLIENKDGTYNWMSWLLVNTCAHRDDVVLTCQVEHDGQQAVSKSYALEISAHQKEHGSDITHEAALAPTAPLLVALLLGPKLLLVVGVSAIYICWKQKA

Substance: anti-hSIRPα (clone SE7C2) (antibody)
- pEC50 (hSIRPαV1(P74A) (human) [1]): < 8.21
- pEC50 [2]: < 8.15
- pEC50 [3]: 7.57
- pEC50 [4]: 8.90
- pEC50 (human SIRPγ (human) [5]): 8.82
- pEC50 [6]: 9.52

Substance: anti-hSIRPα (clone EPR16264) (antibody)
- pEC50 (hSIRPαV1(P74A) (human) [1]): < 8.70
- pEC50 [2]: < 8.93
- pEC50 [7]: 8.61

Substance: anti-hSIRPα (clone REA144) (antibody)
- pEC50 (human SIRPβ1 (human) [8]): < 8.51
- pEC50 (hSIRPαV1(P74A) (human) [1]): < 8.32
- pEC50 [2]: < 8.44
- pEC50 [3]: 8.67
- pEC50 (human SIRPγ (human) [9]): 8.49
- pEC50 (human SIRPβ1 (human) [10]): 8.34
- pEC50 [4]: 8.28
- pEC50 [7]: 8.48

Substance: anti-hSIRPα (clone D6I3M) (antibody)
- pEC50 (hSIRPαV1(P74A) (human) [1]): < 6.92
- pEC50 [2]: < 8.19
- pEC50 [4]: 7.73
- pEC50 [7]: 8.06

Second part, the substance after the results:

- pEC50 (human SIRPβ1 (human) [11]): 9.60
- pEC50 [12]: 9.46
- pEC50 (hSIRP-VγC1βC2β (human)): 9.54
- pEC50 [13]: 9.65
- pEC50 (hSIRP-VβC1βC2γ (human)): 9.64
- pEC50 (hSIRP-VβC1γC2β (human)): 9.51
- pEC50 (human SIRPβ1 (human) [14]): 9.81
- pEC50 (hSIRPαV1(P74A) (human) [15]): 9.82
- pEC50 [16]: 9.79
- pEC50 (hSIRPαV1(P74A) (human) [17]): 9.83
- pEC50 [18]: 9.79
- pEC50 (human SIRPγ (human) [19]): 9.77
- pEC50 (human SIRPβ1 (human) [20]): 9.72
- pEC50 [21]: 9.52
- pEC50 [22]: 9.70
- pEC50 [23]: 9.52
- pEC50 [24]: 9.65
- pEC50 [25]: 10.01
- pEC50 [26]: 9.56
- pEC50 [27]: 9.49
- pEC50 [28]: 9.70
- pEC50 [29]: 9.59
- pEC50 [30]: 9.59
- pEC50 (human SIRPβ1 (human) [8]): 9.98
- pEC50 (hSIRPαV1(P74A) (human) [1]): 9.68
- pEC50 [2]: 9.81
- pEC50 [31]: 9.91
- pEC50 (human SIRPγ (human) [5]): 9.70
- pEC50 (human SIRPβ1 (human) [32]): 9.73
- pEC50 [33]: 9.43
- pEC50 [6]: 9.73
- pEC50 (hSIRPα-VαC1αC2β (human)): 9.90
- pEC50 (hSIRPα-VβC1αC2α (human)): 9.92
- pEC50 (human SIRPβ1 (human) [34]): 9.74
- pEC50 [35]: 9.93
- pEC50 [36]: 10.08
- pEC50 (hSIRPα-VαC1βC2α (human)): 9.87
Substance: anti-hSIRPα (clone SE5A5) (antibody)

- pEC50 (human SIRPγ (human) [19]): 9.58
Substance: anti-hSIRPγ (clone LSB2.20) (antibody)
